Results: US20210101973A1
Ends that are not written are not given here.

Key:
[1] = target: wild-type GHSR stably expressed in an independent cell line (calcium mobilization assay), Q92847; assay: cell-based or functional assay
[2] = target: GHSR on the PathHunter U2OS GHSR beta-Arrestin Cell Line (DiscoverX), Q92847; assay: cell-based or functional assay

wild-type GHSR stably expressed in an independent cell line (calcium mobilization assay), Q92847, sequence (Q92847 whole entry): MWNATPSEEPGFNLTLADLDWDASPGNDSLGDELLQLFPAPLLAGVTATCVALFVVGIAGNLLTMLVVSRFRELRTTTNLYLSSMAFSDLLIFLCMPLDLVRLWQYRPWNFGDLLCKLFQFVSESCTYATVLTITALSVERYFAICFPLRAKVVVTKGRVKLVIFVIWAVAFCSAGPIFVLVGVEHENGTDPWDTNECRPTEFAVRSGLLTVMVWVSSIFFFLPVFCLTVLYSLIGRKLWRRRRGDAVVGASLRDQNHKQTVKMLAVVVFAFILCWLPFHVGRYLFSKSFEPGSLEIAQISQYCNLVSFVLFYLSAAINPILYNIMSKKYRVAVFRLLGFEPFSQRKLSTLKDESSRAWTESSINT

IC50 of abrogation of ghrelin-induced GHSR activity, calcium mobilization (FLUO-3) [1]: 11.6 nM
IC50 of inhibition of ghrelin-induced GHSR activation, PathHunter beta-arrestin assay, antagonist format (ghrelin 13 nM) [2]: 6.74 nM
B1: synthetic LEAP2 peptide (mature peptide of human LEAP2) (peptide)
peptide: MTPFWRGVSLRPIGASCRDDSECITRLCRKRRCSLSVAQE
modifications: disulfide (positions not given here); also: labeled with Alexa 647, site not given here
